Assay results: US20250042994A1 (HAINAN SIMCERE ZAIMING PHARMACEUTICAL, published 2025)
Changes are numbered by the printed parent chain.

T1: human CD19 exon1-3-His tag protein (human, UniProt P15391 20-186, limits assumed)
T1 construct: membrane-distal part of the extracellular region, made in HEK293E cells; not shown: His tag
T1 sequence (looked up): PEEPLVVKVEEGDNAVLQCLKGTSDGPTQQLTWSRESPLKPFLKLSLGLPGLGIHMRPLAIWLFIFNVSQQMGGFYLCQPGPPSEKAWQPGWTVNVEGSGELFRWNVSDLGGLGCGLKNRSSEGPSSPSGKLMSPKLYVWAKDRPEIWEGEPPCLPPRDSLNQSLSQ

T2: Human CD19-his protein (human, UniProt P15391 20-291)
T2 construct: bought protein; also called recombinant human CD19-His; CD19 full-length protein; not shown: His tag
T2 sequence (looked up): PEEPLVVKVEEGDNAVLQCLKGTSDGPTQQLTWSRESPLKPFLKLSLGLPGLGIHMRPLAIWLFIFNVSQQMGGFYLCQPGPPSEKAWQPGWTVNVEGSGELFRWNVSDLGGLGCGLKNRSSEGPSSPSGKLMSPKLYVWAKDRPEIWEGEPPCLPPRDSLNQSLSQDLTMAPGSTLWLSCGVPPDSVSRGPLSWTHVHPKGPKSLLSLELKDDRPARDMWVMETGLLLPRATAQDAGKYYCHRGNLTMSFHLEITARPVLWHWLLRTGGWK

B1: F3.81.2 (antibody, human IgG1, V domains shown)
VH: QVQLQQPGAELVMPGASVKLSCKASAYTFTNYWMHWVKQRPGHGLEWIGEIDPSDSYTDYNQNFKAKATLTVDKSSSTAYMQLSSLTSEDSAVYYCARLMGRYFDVWGTGTTVTVSS
VL: DIVMTQSHKFMSTSVGDRVSITCKASQDVSAAVAWYQQKPGQSPKLLINSASYRYTGVPDRFTGSGSGTDFTFTISSVQAEDLAVYYCQQHYSTPLTFGAGTKLELR
notes: human-murine chimeric antibody, human IgG1 constant
B2: F6.5.20 (antibody, human IgG1, V domains shown)
VH: QVQLQQPGAELVKPGASVKLSCKASGYTFTSYWMQWVKQRPGQGLEWIGEIDPSDSYTNYNQKFKGKASLTVDTSSSTAYMQLSSLTSEDSAVYYCARWGLLRNYYVMDYWGQGTSVTVSS
VL: EIVLTQSPTTMAASPGEKITITCSASSSISSNYLHWYQQKPGFSPKLLIYRTSNLASGVPARFSGSGSGTSYSLTIGTMEAEDVATYYCQQGSSIPRMLTFGAGTKLELK
notes: as for B1
B3: F3.113.16 (antibody, human IgG1, V domains shown)
VH: QVQLQQPGAELVKPGASVKLSCKASGYTFTNYWMQWVKQRPGQGLEWIGEIDPSDSYINYNQKFKGKATLTADTSSSTAYMQLSSLTYEDSAVYYCARPVTVPWYFDVWGTGTTVTVSS
VL: B2 VL with S26T, S94A, M98I, L99F, A103S, L109I
notes: as for B1
B4: F3.64.4 (antibody, human IgG1, V domains shown)
VH: EVQLQQSGPELVKPGASVKISCKASGYTFTDYHINWVKQSHGKSPEWIGDINPNNGGTTYNQKFKDKATLTVDKSSSTAFMELRSLTSEDSAVYYCARFITTVVAWYFDVWGTGTTVTVSS
VL: DIQMTQSPASLSVSVGETVTITCRASENIYSNLAWYQQKQGKSPQLLVYAATNLADGVPSRFSGSGSGTQYSLKINSLQSEDFGNYYCQRFWDTPRTFGGGTKLEIK
notes: as for B1
B5: F6.12.12 (antibody, human IgG1, V domains shown)
VH: DVQLQESGPGLVKPSQSLSLTCSVTGYSITSGYYWIWIRQFPGNKLEWMGYISYDASNKYKPSLKNRISITRDTSKNQFFLKLNSVTAEDTATYFCAREDLRGYFDVWGTGTSVTVSS
VL: DIVLTQSPASLAVSLGRRATISCRASQSVSTSGFSYMHWYQQKPGQPPNLLIKYASILQSGVPARFSGSGSGTDFILNIHPVEDVDTATYYCQHSWGIPFTFGSGTKLEIK
notes: as for B1
B6: F3.13.2 (antibody, human IgG1, V domains shown)
VH: DVQLQESGPGLMKPSQSLSLTCSVTGYSITSGYYWNWIRQFPGNKLEWMGYISYDGSNNYNPSLKNRFSITRDTSKNQFFLKLNSVTTEDTATYYCARRKLTGGPYFDYWGQGTTLTVSS
VL: DIVLTQSPASLAVTLGQRATISCRASESVSFHGFHIMHWYQQKPGQPPKLLIYAASHLVSGVPDRFSGSGSETDFTLNIHPVEEEDAAAYFCQQSVEDPWTFGGGTKLEIK
notes: as for B1
B7: F6.2.9 (antibody, human IgG1, V domains shown)
VH: QVQLQQSGAELVKPGASVKISCKASGYAFSSYWMNWVKQRPGKGLEWIGQIYPGDGDTNYNGKFKGKATLTADKSSSTGYMQLSSLTSEDSAVYFCARSRITSVVDWYFDVWGTGTTVTVSS
VL: QIVLSQSPAILSASPGEKVTMTCRASSSVSYMHWYQQKPGSSPKPWIYATSNLASGVPARFSGSGSGTSYSLTISRVEAEDAATYYCQQWSSNPPTFGAGTKLELK
notes: as for B1
B8: F3.5.1 (antibody, human IgG1, V domains shown)
VH: QAQLQQSGPELVKPGASVKISCKASGYAFSGSWMNWVQQRPGKGLEWIGRIYPGDGDTYYNGKFKDKAILTADKSSSTAYMQLSSLTSEDSAVYFCAQLRYRYVMDYWGQGTSVTVSS
VL: DIVLTQSPASLAVSLGQRATISCRASESVSIHGSHLMHWYQQKPGQPPRLLIYAASNLESGVPARFSGSGSETDFTLNIHPVEEEDAATYFCQQGIKDPYTFGGGTKLEIK
notes: as for B1
B9: F3.40.14 (antibody, human IgG1, V domains shown)
VH: B8 VH with N61S, K74T, Y101S, T112A
VL: B8 VL with S34T, K97D
notes: as for B1
B10: F3.3.10 (antibody, human IgG1, V domains shown)
VH: DVQLQESGPGLAKLSQSLSLTCSVTGYSITSGYYWNWIRQFPGNKLEWMGHISYDGNNNYNPSLKNRISITRDTSKNQFFLKLNSVTTEDTATYYCARENYSNYYFDYWGQGTTLTVSS
VL: DIVLTQSPASLAVSLGQRATISCRASQSVSKSSYTYIHWYQQKPGQPPKLLIKYASILQSGVPARFSGSGSGTDFTLNFHPVEEEDTATYYCQHSWEIPYTFGGGTKLEIK
notes: as for B1
B11: F3.83.9 (antibody, human IgG1, V domains shown)
VH: B10 VH with A12V, L14P, H51Y, N57G, Y95F, N100D, Y104W, Y108V, Q111T, L115V
VL: B10 VL with T35S, I37M, P47S, Q59K, F79I, Y100W
notes: as for B1
B12: F2.15.26 (antibody, human IgG1, V domains shown)
VH: QVQLKESGPGLVAPSQSLSITCTVSGFSLTDYGVSWIRQSPGKGLEWLGVIWGSGDTYYNSVLESRLSINKDNSKNQVFLKMNSLQTDDAAMYFCAKHSYYGGSFAMDYWGQGTSVTVSS
VL: DIQMTQTTSSLSASLGDRVTISCRASQDISNYLNWYQQKPDGTVKLLIYYTSRLHSGVPSRFSGSGSGTDYSLTISNLEQEDIATYFCQQGKTLPWTFGGGTKLEIK
notes: as for B1
B13: F1-mab003 (antibody, human IgG1, V domains shown)
VH: EVQLQQSGPELVKPGASVKMSCKASGYTFTDYVMHWVRQTPGQGLEWIGYFNPYNDGTNYNEKFKVKATLTSDKSSTTAYMELSSLTSEDSAVYYCARGVYYYGRDFDYWGQGTTLTVSS
VL: DVVLTQTPLSLPVSLGDQASISCRSSQSLENSNGNSYLNWYLQKPGQSPQLLIYRVSNRFSGVLDRFSGSGSGTDFTLKISRVEAEDLGVYFCLQITHVPWTFGGGTKLEIK
notes: as for B1

target: T1, human CD19 exon1-3-His tag protein; assay: ELISA on coated human CD19 exon 1-3-His
Method: Human CD19-his protein (purchased from ACROBiosystems, catalog number: CD9-H52H2) was diluted with PBS to a final concentration of 4 μg/mL, and then added to a 96-well ELISA plate at 100 μl/well. The plate was sealed with a plastic film and incubated overnight at 4° C., the plate was washed 2 times with PBS the next day, and then a blocking solution [PBS+2% (w/w) BSA] was added for blocking at room temperature for 2 h. The blocking solution was poured off, and 100 nM gradiently diluted CD19 chimeric antibody or control antibody was added at 50 μl/well. After incubation at 37° C. for 2 h, the plate was washed 3 times with PBS. […] TMB substrate was added at 50 μl/well, and incubated at room temperature for 10 min, and then a stop solution (1.0 N HCl) was added at 50 μl/well. The OD450 nm values were read by an ELISA microplate reader (Multimode Plate Reader, EnSight, purchased from Perkin Elmer).
CD19 protein contains 4 exons in the extracellular region, in which exons 1-3 are located at the membrane-distal end and exon 4 is located at the membrane-proximal end. […] To identify the distribution of antigen binding epitopes of the chimeric antibodies, human CD19 exon 1-3-His (membrane-distal end) was used to coat at 2 μg/mL according to the ELISA method in example 5.1.

| Binder | binding result |
| --- | --- |
| B1 | no binding (tested: 100 nM) |
| B2 | no binding (tested: 100 nM) |
| B3 | no binding (tested: 100 nM) |
| B4 | no binding (tested: 100 nM) |
| B5 | no binding (tested: 100 nM) |
| B6 | no binding (tested: 100 nM) |
| B7 | no binding (tested: 100 nM) |
| B8 | no binding (tested: 100 nM) |
| B9 | no binding (tested: 100 nM) |
| B10 | no binding (tested: 100 nM) |
| B11 | no binding (tested: 100 nM) |
| B12 | no binding (tested: 100 nM) |
| B13 | no binding (tested: 100 nM) |

target: T2, Human CD19-his protein; assay: SPR Biacore, Ab captured on Protein A, CD19-His analyte
Method: A sample buffer and a running buffer were HBS-EP+ (10 mM HEPES, 150 mM NaCl, 3 mM EDTA and 0.05% surfactant P20) (GE Healthcare; BR-1006-69). The flow-through cell was set to 25° C. The sample block was set to 16° C. Both were pretreated with the running buffer. In each cycle, an antibody to be detected was first captured with a Protein A chip, and then a single concentration of CD19 antigen protein was injected. The binding and dissociation processes of the antibody and the antigen protein were recorded, and finally Glycine pH 1.5 (GE Healthcare; BR-1003-54) was used to complete chip regeneration. The binding was measured by injecting different concentrations of recombinant human CD19-His proteins in a solution for 240 s with a flow rate of 30 μl/min. The concentration started from 200 nM (see the detailed results for the actual concentration in the test) and was diluted at 1:1, making a total of 5 concentrations. The dissociation phase was monitored for up to 600 s and was triggered by switching from sample solution to running buffer. The surface was regenerated by washing with a 10 mM glycine solution (pH 1.5) for 30 s at a flow rate of 30 μl/min. Bulk refractive index difference was corrected by subtracting the response obtained from the goat anti-human Fc surface. Blank injection was also subtracted (=double reference). For calculation of apparent KD and other kinetic parameters, Langmuir 1:1 model was used.

| Binder | Kd | koff | kon |
| --- | --- | --- | --- |
| B1 | 0.766 nM | 0.000104 s⁻¹ | 135000 M⁻¹ s⁻¹ |
| B2 | 5.28 nM | 0.00187 s⁻¹ | 355000 M⁻¹ s⁻¹ |
| B3 | 12.4 nM | 0.00105 s⁻¹ | 84800 M⁻¹ s⁻¹ |
| B4 | 1.64 nM | 0.000313 s⁻¹ | 191000 M⁻¹ s⁻¹ |
| B5 | 1.46 nM | 0.000245 s⁻¹ | 167000 M⁻¹ s⁻¹ |
| B6 | 8.13 nM | 0.000526 s⁻¹ | 64700 M⁻¹ s⁻¹ |
| B7 | 21.7 nM | 0.0033 s⁻¹ | 152000 M⁻¹ s⁻¹ |
| B8 | 0.543 nM | 8.47e-05 s⁻¹ | 156000 M⁻¹ s⁻¹ |
| B9 | 1.7 nM | 0.000143 s⁻¹ | 84300 M⁻¹ s⁻¹ |
| B10 | 8.47 nM | 0.000621 s⁻¹ | 73400 M⁻¹ s⁻¹ |
| B11 | 3.67 nM | 0.000312 s⁻¹ | 85100 M⁻¹ s⁻¹ |
| B12 | 0.839 nM | 0.000229 s⁻¹ | 273000 M⁻¹ s⁻¹ |
| B13 | 0.247 nM | 0.000111 s⁻¹ | 450000 M⁻¹ s⁻¹ |
